In patent US11319368B2, “Treatment of hepatotoxicity with IL-11 antibody” (Singapore Health Services PTE LTD., priority 2019, dated 2022):

Assays:
human hepatocytes [1] = conditions: 0.2 mM H2O2, 24 hours
Procedure: Human hepatocytes (5200, ScienCell) were grown and maintained at 37° C. and 5% CO2. Hepatocyte medium (5201, ScienCell) supplemented with 2% fetal bovine serum and 1% Penicillin-streptomycin was renewed every 2-3 days and cells were passaged at 80% confluence using standard trypsinization techniques. All the experiments were carried out at low cell passage (P2-P3) and cells were serum-starved for 16 hours prior to respective stimulations (24 hours) that were performed in serum-free hepatocyte media. Stimulated cells were compared to unstimulated cells that have been grown for the same duration under the same conditions (serum-free hepatocyte media), but without the stimuli. […] The levels of IL-11 in mouse serum and hepatocyte supernatant were quantified using Mouse IL-11 DuoSet (DY418 and DY008, R&D Systems) and Human IL-11 Quantikine ELISA kit [MUT], R&D Systems), respectively, according to the manufacturer's protocol.

AILI [2] = experiment: X209, NAC or NAC+X209 3 h after APAP in mice
Procedure: Mice were administered anti-IL11Rα (X209) or IgG isotype control antibody at different times and doses, as described above or in the figure legends.
The levels of alanine transaminase (ALT) or aspartate aminotransferase (AST) in mouse serum and hepatocyte supernatant were measured using ALT Activity (ab105134, Abcam) or AST (ab105135, Abcam) Assay Kits. Liver glutathione sulfhydryl (GSH) measurements were performed using Glutathione Colorimetric Detection Kit (EIAGSHC, Thermo Fisher). All colorimetric assays were performed according to the manufacturer's protocol.
Western blots were carried out from hepatocyte and liver tissue lysates. Hepatocytes and tissues were homogenized in radioimmunoprecipitation assay (RIPA) buffer containing protease and phosphatase inhibitors (Thermo Fisher), followed by centrifugation to clear the lysate. Protein concentrations were determined by Bradford assay (Bio-Rad). Equal amounts of protein lysates were separated by SDS-PAGE, transferred to PVDF membrane, and subjected to immunoblot analysis for the indicated primary antibodies. Proteins were visualized using the ECL detection system (Pierce) with the appropriate secondary antibodies.

[3] = tested on: rheumatoid synovial cells; conditions: cited from earlier work
[4] = tested on: primary human hepatocytes; experiment: hyperIL11 or hyperIL6 stimulation of primary human hepatocytes, with or without sgp130; format: cell-based
[5] = tested on: primary human hepatocytes; experiment: IL11 stimulation of primary human hepatocytes with sgp130 or sIL11Rα; format: cell-based; conditions: for effect on IL11-induced hepatocyte death and signaling: IL11 20 ng/ml, sgp130, sIL11Rα 1 μg/ml; for effect on ALT release from IL11-stimulated hepatocytes: increasing doses
human hepatocytes [6] = experiment: rhIL11 versus rmIL11 on human hepatocytes; format: cell-based; conditions: 10 ng ml^-1
AILI [7] = experiment: rhIL11 or rmIL11 injection in APAP OD mice; format: in vivo, mouse
Procedure: FIGS. 10A to 10L. […] (A, B, K, L) 24 h. […] FC: fold change

mouse hepatocytes = experiment: rhIL11 versus rmIL11 on mouse hepatocytes; format: cell-based
From the text: Mouse hepatocytes (ABC-TC3928, AcceGen Biotech) were maintained in mouse hepatocyte medium (ABC-TM3928, AcceGen Biotech) supplemented with 1% Penicillin-streptomycin.

liver = conditions: single subcutaneous injection 500 μg kg^-1
Procedure: (A) Effect of recombinant human IL11 (rhIL11, 10 ng ml^−1) or recombinant mouse IL11 (rmIL11, 10 ng ml^−1) on ERK, JNK and CASP3 activation status in mouse hepatocytes. (B) ALT levels in mouse hepatocyte supernatant following stimulation by rmIL11 (10 ng ml^−1) or by increasing doses of rhIL11 (1, 5, 10, 15 and 20 ng ml^−1). (C) Schematic of mice receiving a single subcutaneous injection of either saline, rhIL11, or rmIl11 (500 μg kg^−1). (D) Western blot analysis of hepatic p-ERK, p-JNK, and Cl. […] Dose-dependent inhibition effect of rhIL11 on rmIL11-induced (K) ALT secretion and (L) CASP3 activation by mouse hepatocytes. (A, B, K, L) 24 h. (B, K) Data are shown as mean±SD; (E, G) Data are shown as box-and-whisker with median (middle line), 25th-75th percentiles (box), and minimum-maximum values (whiskers). (B, K) Two-tailed, Tukey-corrected Student's t-test; (E) two-tailed Student's t-test; (G) two-tailed Dunnett's test.
The levels of alanine transaminase (ALT) or aspartate aminotransferase (AST) in mouse serum and hepatocyte supernatant were measured using ALT Activity (ab105134, Abcam) or AST (ab105135, Abcam) Assay Kits. […] All colorimetric assays were performed according to the manufacturer's protocol.
Western blots were carried out from hepatocyte and liver tissue lysates. […] Protein concentrations were determined by Bradford assay (Bio-Rad). […]

kidney = conditions: 100-1000 μg/kg, IP; 10 minutes prior to or 30-60 minutes following IR; cited from earlier work
[8] = tested on: APAP overdose acute liver injury; experiment: Severe APAP overdose in mice, anti-IL11 antibody (X203) 16 h before; format: in vivo, mouse; conditions: 20 mg/kg IP 16 hours before APAP 400 mg/kg; 24 hours after APAP

OO [H2O2, hydrogen peroxide]
IL-11 upregulated in the supernatant (human hepatocytes [1]): 10 fold

CC(=O)N[C@@H](CS)C(=O)O [NAC, N-acetyl-cysteine, reference compound]
ALT reduction (AILI [2]; 3 h after APAP, NAC 500 mg kg^-1, X209 5 mg kg^-1): 38%
serum levels of ALT and AST (AILI [2]; NAC 500 mg kg^-1 3 h after APAP): reduced serum levels of ALT and AST

COc1ccc2c(c1)c(CC(=O)O)c(C)n2C(=O)c1ccc(Cl)cc1 [indomethacin, reference compound]
expression of IL-11 [3]: reduction in the expression of IL-11

interferon-gamma: interferon-gamma (IFNγ)
expression of IL-11 [3]: reduction in the expression of IL-11

B1: sgp130: human soluble gp130 Fc, inhibitor of trans-signaling complexes acting through gp130 (protein)
chain: ELLDPCGYISPESPVVQLHSNFTAVCVLKEKCMDYFHVNANYIVWKTNHFTIPKEQYTIINRTASSVTFTDIASLNIQLTCNILTFGQLEQNVYGITIISGLPPEKPKNLSCIVNEGKKMRCEWDGGRETHLETNFTLKSEWATHKFADCKAKRDTPTSCTVDYSTVYFVNIEVWVEAENALGKVTSDHINFDPVYKVKPNPPHNLSVINSEELSSILKLTWTNPSIKSVIILKYNIQYRTKDASTWSQIPPEDTASTRSSFTVQDLKPFTEYVFRIRCMKEDGKGYWSDWSEEASGITYEDRPSKAPSFWYKIDPSHTQGYRTVQLVWKTLPPFEANGKILDYEVTLTRWKSHLQNYTVNATKLTVNLTNDRYLATLTVRNLVGKSDAAVLTIPACDFQATHPVMDLKAFPKDNMLWVEWTTPRESVKKYILEWCVLSDKAPCITDWQQEDGTVHRTYLRGNLAESKCYLITVTPVYADGPGSPESIKAYLKQAPPSKGPTVRTKKVGKNEAVLEWDQLPVDVQNGFIRNYTIFYRTIIGNETAVNVDSSHTEYTLSSLTSDTLYMVRMAAYTDEGGKDGPEFTFTTPKFAQGEIE
modifications: left off: a dimerising Fc or GST
hepatotoxic effects of hyperIL11 (ALT) ([4]; increasing amounts of sgp130): inhibited the hepatotoxic effects of hyperIL11
signaling pathways downstream of hyperIL11 and hyperIL6 ([4]; sgp130 with hyperIL11 or hyperIL6 20 ng/ml): blocked the activation of signaling pathways downstream of both hyperIL11 (p-ERK/p-JNK) and hyperIL6 (p-STAT3)
effect on IL11-induced hepatocyte death and signaling [5]: unaffected
effect on ALT release from IL11-stimulated hepatocytes [5]: no effect on ALT release

B2: HyperIL11: IL11Rα:IL11 fusion protein which mimics the trans-signalling complex (SEQ ID NO:21) (protein)
chain: MSSSCSGLSRVLVAVATALVSASSPCPQAWGPPGVQYGQPGRSVKLCCPGVTAGDPVSWFRDGEPKLLQGPDSGLGHELVLAQADSTDEGTYICQTLDGALGGTVTLQLGYPPARPVVSCQAADYENFSCTWSPSQISGLPTRYLTSYRKKTVLGADSQRRSPSTGPWPCPQDPLGAARCVVHGAEFWSQYRINVTEVNPLGASTRLLDVSLQSILRPDPPQGLRVESVPGYPRRLRASWTYPASWPCQPHFLLKFRLQYRPAQHPAWSTVEPAGLEEVITDAVAGLPHAVRVSARDFLDAGTWSTWSPEAWGTPSTGPAGQSGGGGGSGGGSGGGSVPGPPPGPPRVSPDPRAELDSTVLLTRSLLADTRQLAAQLRDKFPADGDHNLDSLPTLAMSAGALGALQLPGVLTRLRADLLSYLRHVQWLRRAGGSSLKTLEPELGTLQARLDRLLRRLQLLMSRLALPQPPPDPPAPPLAPPSSAWGGIRAAHAILGGLHLTLDWAVRGLLLLKTRL
modifications: Hyper IL-11 (IL-11RAIL-11 fusion)
ERK and JNK activation ([4]; 2.5 ng/ml to 20 ng/ml, 24 h): activated ERK and JNK in a dose-dependent manner
alanine transaminase (ALT) in the media ([4]; dose range, 24 h): dose-dependent increase in alanine transaminase (ALT)

B3: rmIL11: recombinant mouse IL11 (UniProtKB: P47873, Genscript) (protein)
chain: PGPPAGSPRVSSDPRADLDSAVLLTRSLLADTRQLAAQMRDKFPADGDHSLDSLPTLAMSAGTLGSLQLPGVLTRLRVDLMSYLRHVQWLRRAGGPSLKTLEPELGALQARLERLLRRLQLLMSRLALPQAAPDQPVIPLGPPASAWGSIRAAHAILGGLHLTLDWAVRGLLLLKTRL
ERK and JNK signaling and hepatocyte death (human hepatocytes [6]): did not
hepatic GSH levels after APAP (AILI [7]; APAP injury): did not
protection against AILI (AILI [7]; subcutaneous injection, APAP OD): not protective
ERK and JNK phosphorylation, CASP3 cleavage (mouse hepatocytes; 10 ng ml^-1, 24 h): stimulated ERK and JNK phosphorylation and induced CASP3 cleavage
mouse hepatocyte cell death (ALT in supernatant) (mouse hepatocytes; 24 h): induced mouse hepatocyte cell death
hepatic ERK and JNK phosphorylation (liver): gradual ERK and immediate JNK activation

B4: sIL11Rα: soluble IL11Rα (human IL11Rα, R&D systems) (protein, UniProt Q14626 24-370, looked up)
extracellular domain: SPCPQAWGPPGVQYGQPGRSVKLCCPGVTAGDPVSWFRDGEPKLLQGPDSGLGHELVLAQADSTDEGTYICQTLDGALGGTVTLQLGYPPARPVVSCQAADYENFSCTWSPSQISGLPTRYLTSYRKKTVLGADSQRRSPSTGPWPCPQDPLGAARCVVHGAEFWSQYRINVTEVNPLGASTRLLDVSLQSILRPDPPQGLRVESVPGYPRRLRASWTYPASWPCQPHFLLKFRLQYRPAQHPAWSTVEPAGLEEVITDAVAGLPHAVRVSARDFLDAGTWSTWSPEAWGTPSTGTIPKEIPAWGQLHTQPEVEPQVDSPAPPRPSLQPHPRLLDHRDSVEQVAVLA
modifications: extracellular domain
effect on IL11-induced hepatocyte death and signaling [5]: unaffected
effect on ALT release from IL11-stimulated hepatocytes [5]: no effect on ALT release

B5: PEGylated rhIL11: PEGylated rhIL11 (Lee et al. 2012) (conjugate, UniProt P20809 22-199, looked up)
Interleukin-11: PGPPPGPPRVSPDPRAELDSTVLLTRSLLADTRQLAAQLRDKFPADGDHNLDSLPTLAMSAGALGALQLPGVLTRLRADLLSYLRHVQWLRRAGGSSLKTLEPELGTLQARLDRLLRRLQLLMSRLALPQPPPDPPAPPLAPPSSAWGGIRAAHAILGGLHLTLDWAVRGLLLLKTRL
modifications: PEG
renoprotection (kidney): The authors conclude that IL11 is renoprotective based on pre-

B6: X203: antagonist anti-IL11 antibody (Ng et al., Sci Transl Med. 2019) (antibody, V domains shown)
VH: EVQLQQSGPELVKPGASVKIPCKASGYTFTDYNMDWVKQSHGKSLEWIGDINPHNGGPIYNQKFTGKATLTVDKSSSTAYMELRSLTSEDTAVYYCARGELGHWYFDVWGTGTTVTVSS
VL: DIVLTQSPASLAVSLGQRATISCRASKSVSTSGYSYIHWYQQKPGQPPKLLIYLASNLDSGVPARFSGSGSGTDFTLNIHPVEEEDAATYYCQHSRDLPPTFGGGTKLEIK
serum ALT levels [8]: substantial reduction
serum AST levels [8]: substantial reduction
